From US20260274985A1 (MYTHIC THERAPEUTICS, published 2026)
Changes are numbered by the printed parent chain. One block for each binder: values may come before it.

Biological target: T1, Human TROP2 Protein, His Tag (Acro Biosystems) (human, UniProt P09758 27-274)
T1 construct: Soluble analyte of the Octet assay; also called TACSTD2; not shown: His tag
T1 sequence (looked up): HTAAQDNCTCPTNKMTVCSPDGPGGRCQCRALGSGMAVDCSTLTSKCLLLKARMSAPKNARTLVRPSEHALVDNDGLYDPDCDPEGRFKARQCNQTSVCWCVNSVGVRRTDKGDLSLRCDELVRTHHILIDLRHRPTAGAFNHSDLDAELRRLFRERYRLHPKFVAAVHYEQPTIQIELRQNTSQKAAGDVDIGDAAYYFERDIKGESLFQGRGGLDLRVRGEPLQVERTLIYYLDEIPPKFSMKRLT
Assay: BLI (Octet)

- binding result: binds
B11: MYT13179 (antibody, V domains shown)
VH: QVQLQQSGSELKKPGASVKVSCKASGYTFTNYGMNWVKQAPGQGLKWMGWINTYTGEPTYTHDFKGRFAFSLDTSVSTAYLQISSLKADDTAVYFCARGGFGSSYWYFDVWGQGSLVTVSS
VL: DIQLTQSPSSLSASVGDRVSITCKASQDVSIAVAWYQQKPGKAPKLLIYSHSYRYTGVPDRFSGSGSGTDFTLTISSLQPEDFAVYYCQQHYITPLTFGAGTKVEIK
notes: Sacituzumab HC-LC pairing variant; IgG

- binding result: binds
B12: MYT13184 (antibody, V domains shown)
VH: B11 VH with Y32H, H62D
VL: B11 VL with H51A, S52H
notes: as for B11

- binding result: binds
B13: MYT13182 (antibody, V domains shown)
VH: B11 VH with H62D, K65H
VL: B11 VL
notes: as for B11

- binding result: binds
B14: MYT13174 (antibody, V domains shown)
VH: B11 VH with H62D, K65H
VL: B11 VL with V33H, H51A
notes: as for B11

- binding result: binds
B15: MYT13181 (antibody, V domains shown)
VH: B11 VH with H62D, F64H
VL: B11 VL
notes: as for B11

- binding result: binds
B16: MYT13183 (antibody, V domains shown)
VH: B11 VH with H62D, G66H
VL: B11 VL
notes: as for B11

- binding result: binds
B17: MYT13188 (antibody, V domains shown)
VH: B11 VH with H62D, D63H
VL: B11 VL with H51A, S52H
notes: as for B11

- binding result: binds
B18: MYT13178 (antibody, V domains shown)
VH: B11 VH with Y60H, H62D
VL: B11 VL
notes: as for B11

Second part, the binder before the results:

B1: MYT13170 (antibody, V domains shown)
VH: B11 VH with Y60H, H62D
VL: B11 VL with V33H, H51A
notes: as for B11
- binding result: binds

B2: MYT13185 (antibody, V domains shown)
VH: B11 VH with G33H, H62D
VL: B11 VL with H51A, S52H
notes: as for B11
- binding result: binds

B3: MYT13177 (antibody, V domains shown)
VH: B11 VH with G33H, H62D
VL: B11 VL
notes: as for B11
- binding result: binds

B4: MYT13180 (antibody, V domains shown)
VH: B11 VH with H62D, D63H
VL: B11 VL
notes: as for B11
- binding result: binds

B5: MYT13171 (antibody, V domains shown)
VH: B11 VH
VL: B11 VL with V33H, H51A
notes: as for B11
- binding result: binds

B6: MYT13186 (antibody, V domains shown)
VH: B11 VH with Y60H, H62D
VL: B11 VL with H51A, S52H
notes: as for B11
- binding result: binds

B7: MYT13189 (antibody, V domains shown)
VH: B11 VH with H62D, F64H
VL: B11 VL with H51A, S52H
notes: as for B11
- binding result: binds

B8: MYT13173 (antibody, V domains shown)
VH: B11 VH with H62D, F64H
VL: B11 VL with V33H, H51A
notes: as for B11
- binding result: binds

B9: MYT13175 (antibody, V domains shown)
VH: B11 VH with H62D, G66H
VL: B11 VL with V33H, H51A
notes: as for B11
- binding result: binds

B10: MYT13172 (antibody, V domains shown)
VH: B11 VH with H62D, D63H
VL: B11 VL with V33H, H51A
notes: as for B11
- binding result: binds
